Reference: US9550980B2, “Composition and methods for the production of L-homoalanine” (The Regents of the University of California, priority 2010, dated 2017)

Legend:
[1] = Enzymatic assay of purified glutamate dehydrogenases, amination of 2-ketoisovalerate (NADPH consumption at 340 nm); type: biochemical
Protocol: (§1) To characterize the enzymes, both the wild-type glutamate dehydrogenase GDHwt and mutant GDH2 were added an N-terminal 6×His-tag, overexpressed, and purified through Ni-NTA columns. The kinetic parameters for […] of 2-ketoglutarate (cognate substrate) and 2-ketoisovalerate or 2-ketobutyrate (nonnatural substrates) were determined by monitoring the consumption of NADPH at 340 nm (FIG. 6). […] The increase in binding affinity is very helpful since high concentration of 2-ketobutyrate interferes with cellular metabolic activities (see, e.g. Daniel et al. (1983) Mol Gen Genet 190(3):452-458). […]
(§2) Both gene fragments encoding wildtype glutamate dehydrogenase and GDH2 were amplified using primers GDHbamfwd and GDHbamrev. […] Protein concentration was determined by measuring UV absorbance at 280 nm.
(§3) Enzymatic assay was performed in assay buffer (100 mM Tris buffer, pH 8.0) containing 0.2M NH4Cl, 0.2 mM NADPH, and various concentrations of 2-ketoacids. The reactions were started by adding the purified enzymes, and the consumption of NADPH was monitored at 340 nm (extinction coefficient, 6.22 mM^−1 cm^−1). Kinetic parameters (kcat and Km) were determined by fitting initial velocity data to the Michaelis-Menten equation using Origin.

[2] = test system: 2-ketobutyrate; assay: Conversion of fed 2-ketobutyrate to L-homoalanine by E. coli BW25113 overexpressing amination enzymes; type: cell-based, Escherichia coli; set-up: L-homoalanine produced: unit not given here
Protocol: FIG. 2 is a graph comparing different amination enzymes on the production of L-homoalanine. E. coli cultures were inoculated in M9 medium with addition of 10 g/L 2-ketobutyrate and incubated at 37° C. for 24 h. The horizontal axis labels are defined as follows: (A) Wild-type E. coli BW25113; overexpression of (B) transaminase IlvE (C) valine dehydrogenase from Streptomyces avermitilis; (D) valine dehydrogenase from Streptomyces coelicolor, (E) valine dehydrogenase from Streptomyces fradiae; (F) evolved glutamate dehydrogenase GDH1; and (G) evolved glutamate dehydrogenase GDH2. The error bars represent standard deviations from three independent experiments.
In order to check if any endogenous transaminase of E. coli can work on 2-ketobutyrate, we fed 10 g/L 2-ketobutyrate to wildtype E. coli strain BW25113 growing in M9 medium. […] Since the branched-chain amino acid aminotransferase IlvE (see, e.g. Inoue K, et al. (1988) J Biochem 104(5):777-784) is likely to be a functional candidate, we cloned and overexpressed IlvE in BW25113, which increased the production of L-homoalanine to […] (FIG. 2B). […] However, high concentration of glutamate is needed to drive the reaction equilibrium because transamination is a reversible reaction process. Even under such extreme conditions, the conversion rate of transaminating 2-ketobutyrate to L-homoalanine is only 32%.
To test the conversion of 2-ketobutyrate to L-homoalanine, plasmids pZElac_IlvE, pZElac_VDHsa, pZElac_VDHsc, pZElac_VDHsf, pZElac_GDH and pZElac_GDH2 were transformed into BW25113. The transformants were inoculated in M9 medium with 5 g/L yeast extract, 10 g/L ammonium hydrochloride and 20 g/L glucose. Once OD reached ˜1.0, 10 g/L 2-ketobutyrate plus 0.1 mM IPTG were added and incubated at 37° C. for 24 h. Amino acids were quantified as o-phthaldialdehyde (OPA) derivatives by HPLC analysis.

[3] = Enzymatic assay of purified glutamate dehydrogenases, amination of 2-ketobutyrate (NADPH consumption at 340 nm); type: biochemical
Protocol: To characterize the enzymes, both the wild-type glutamate dehydrogenase GDHwt and mutant GDH2 were added an N-terminal 6×His-tag, overexpressed, and purified through Ni-NTA columns. The kinetic parameters for […] of 2-ketoglutarate (cognate substrate) and 2-ketoisovalerate or 2-ketobutyrate (nonnatural substrates) were determined by monitoring the consumption of NADPH at 340 nm (FIG. 6). […] The increase in binding affinity is very helpful since high concentration of 2-ketobutyrate interferes with cellular metabolic activities (see, e.g. Daniel et al. (1983) Mol Gen Genet 190(3):452-458). On the basis of the crystallographic model for the active site of GDH, amino group of K92 hydrogenbonds to the γ-carboxyl group of 2-ketoglutarate and determines the substrate specificity (see, e.g. Stillman et al. (1993) J Mol Biol 234(4):1131-1139). Mutation of lysine to valine increases the hydrophobic character of the binding pocket, which explains why the specificity constant kcat/Km of GDH2 towards 2-ketobutyrate is 50-fold higher than that towards the natural substrate 2-ketoglutarate.
Both gene fragments encoding wildtype glutamate dehydrogenase and GDH2 were amplified using primers GDHbamfwd and GDHbamrev. After digestion with BamHI, the gene fragments were inserted into expression plasmid pQE9 (Qiagen). The resulting expression plasmids were transformed into E. coli strain BL21(DE3) harboring pREP4 (Qiagen). Cells were inoculated from an overnight preculture at 1/100 dilution and grown in 200 mL 2XYT rich medium containing 50 mg/L ampicillin and 25 mg/L kanamycin. At an OD600 of 0.6, recombinant proteins were expressed by induction of the cell cultures with 0.1 mM IPTG, followed by incubation at 30° C. overnight. Overexpressed proteins were then purified with Ni-nitrilotriacetic acid columns. Protein concentration was determined by measuring UV absorbance at 280 nm.
as §3

[4] = Enzymatic assay of purified glutamate dehydrogenases, amination of 2-ketoglutarate (NADPH consumption at 340 nm); type: biochemical
Protocol: as §1, §2, §3

[5] = test system: valine auxotrophic E. coli (ΔavtA, ΔilvE); assay: Growth rescue of valine auxotrophic E. coli (ΔavtA, ΔilvE) in M9 minimal medium; type: cell-based, Escherichia coli; settings: absence of valine
Description: FIG. 4A illustrates a binding pocket of Clostridium symbiosum glutamate dehydrogenase (PDB: 1BGV) complexed with its natural substrate glutamate. Residues K89, T193, V377, and S380 are within a radius of 6 Å of the γ-carbon of glutamate. […] The binding pocket is conserved, and the corresponding residues of E. coli GDH are K92, T195, V377, and S380. These residues were subjected to site-saturation mutagenesis with randomized NNK codon. A library size of 2 million members was transformed into valine auxotrophic E. coli and selected for mutants growing in M9 minimal medium. FIG. 4C is a graph showing the growth curve of E. coli (AavtA, AilvE) transformants in minimal medium. −Val means absence of valine. +Val means presence of valine. Or cells are transformed with GDH1 (K92L, T195A, V377A, and S380C mutations) or GDH2 (K92V and T195S mutations) mutant.
To this end, we have developed a selection strategy to evolve GDH. Deletion of transaminase genes avtA and ilvE from the chromosome makes wild-type E. coli valine auxotrophic (see, e.g. Wang et al. (1987) J Bacteriol 169(9):4228-4234), whose growth in minimal medium can be rescued by a mutant GDH active on aminating the valine precursor 2-ketoisovalerate (FIG. 3B). […]

[6] = test system: threonine; assay: Production of L-homoalanine from glucose by E. coli overexpressing GDH2 and threonine dehydratases; type: cell-based, Escherichia coli; settings: overexpression in BW25113
Description: FIG. 5A is a graph with horizontal axis labels defined as follows: (1) BW25113; (2) BW25113 with overexpression of GDH2; (3) ATCC98082 with overexpression of TdcB & GDH2; (4) ATCC98082 with overexpression of IlvAEc & GDH2; (5) ATCC98082 with overexpression of IlvABS & GDH2; and (6) ATCC98082 (ArhtA) with overexpression of IlvABS and GDH2. FIG. 5B is a graph showing the yield of L-homolalanine biosynthesis from glucose. The error bars represent standard deviations from three independent experiments.
To test the production of L-homoalanine from glucose, E. coli strain ATCC98082 harboring plasmid pZS_thrO (see, e.g. Zhang et al. (2008) Proc Natl Acad Sci USA 105(52):20653-20658) was transformed with pZElac_tdcB_GDH, pZElac_ilvAEC_GDH and pZElac_ilvABS_GDH. These transformants were subjected to fermentation using the following production medium: 30 g glucose, 17 g (NH4)2SO4, 2 g KH2PO4, 1 g MgSO4.7H2O, 2 g yeast extract, 0.1 g L-valine, 0.01 g FeSO4:7H2O and 0.01 g MnSO4:7H2O per liter. Antibiotics were added appropriately (ampicillin 50 mg/L, spectinomycin 25 mg/L). Overnight 2XYT culture were diluted 25× into fermentation medium and 0.1 mM isopropyl-b-D-thiogalactoside (IPTG) was added to induce protein expression. In shake flask experiments, the culture medium was buffered by addition of 30 g/L CaCO3. Cultures were incubated in 33° C. shaker (250 rpm) for 40-50 h until glucose was consumed.

B1: GDH2: evolved E. coli glutamate dehydrogenase mutant with K92V and T195S mutations (protein, listed as Escherichia coli)
chain: MDQTYSLESFLNHVQKRDPNQTEFAQAVREVMTTLWPFLEQNPKYRQMSLLERLVEPERVIQFRVVWVDDRNQIQVNRAWRVQFSSAIGPYVGGMRFHPSVNLSILKFLGFEQTFKNALTTLPMGGGKGGSDFDPKGKSEGEVMRFCQALMTELYRHLGADTDVPAGDIGVGGREVGFMAGMMKKLSNNTACVFSGKGLSFGGSLIRPEATGYGLVYFTEAMLKRHGMGFEGMRVSVSGSGNVAQYAIEKAMEFGARVITASDSSGTVVDESGFTKEKLARLIEIKASRDGRVADYAKEFGLVYLEGQQPWSLPVDIALPCATQNELDVDAAHQLIANGVKAVAEGANMPTTIEATELFQQAGVLFAPGKAANAGGVATSGLEMAQNAARLGWKAEKVDARLHHIMLDIHHACVEHGGEGEQTNYVQGANIAGFVKVADAMLAQGVI
kcat towards 2-ketoisovalerate relative to GDHwt [1]: five times higher kcat than GDHwt | productivity of L-homoalanine ([2]; 10 g/L 2-ketobutyrate fed): 5.1 g/L/day | conversion yield of 2-ketobutyrate to L-homoalanine ([2]; 10 g/L 2-ketobutyrate, no glutamate feeding): 50% | L-homoalanine produced ([2]; BW25113 transformant, 10 g/L 2-ketobutyrate fed, M9 medium, 37° C., 24 h): 5.1 | decrease in Km on 2-ketobutyrate compared to GDHwt [3]: 4 fold | increase in kcat on 2-ketobutyrate compared to GDHwt [3]: 2 fold | kcat towards 2-ketobutyrate ([3]; 100 mM Tris pH 8.0, 0.2M NH4Cl, 0.2 mM NADPH): 90.2 s⁻¹ | Km ([3]; 100 mM Tris pH 8.0, 0.2M NH4Cl, 0.2 mM NADPH, read-out: Km towards 2-ketobutyrate): 8.4 mM | specificity constant kcat/Km towards 2-ketobutyrate, higher than towards 2-ketoglutarate ([3]; 2-ketobutyrate versus natural substrate 2-ketoglutarate): 50 fold | specificity constant kcat/Km towards 2-ketoglutarate, smaller than that of GDHwt [4]: ~3,000 fold | rescue of cell growth without valine [5]: successfully rescued the valine auxotrophic phenotype | L-homoalanine produced from glucose [6]: 0.1 g/L
